We go through one sequence from PMC3781045.

This data set addresses T1, rZur (ZurPA, Np20) (Pseudomonas aeruginosa PAO1?) (UniProt Q9HT74).
T1 sequence: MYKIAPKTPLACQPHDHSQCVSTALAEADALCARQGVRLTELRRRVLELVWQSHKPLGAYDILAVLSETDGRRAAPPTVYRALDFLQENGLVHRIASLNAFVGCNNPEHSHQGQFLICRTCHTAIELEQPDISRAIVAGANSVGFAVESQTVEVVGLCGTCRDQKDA
Put plainly: EMSA. The conditions noted are these: 10 mM Tris-HCl pH 8.0, 40 mM KCl, 10 mM MgCl2, 1 mM DTT, 5% glycerol, 1 uM ZnCl2, 0.5 ug salmon sperm DNA; room temperature 30 min; gel at 4 C. (In general: Mobility shift assays separate free from complexed probe on a gel.)

Regarding “CGGCGAAGCCAGCAGGAACAGGGCGAAGCAGGCGGACAGCAGGGCAAAGGGACGCAGGGTCACGGCGGCACTCACATGAAAGGTGGTTAGCGGGTAATATAATAACGTCTCTACCCTCGAGCGTCGCAGCCCATGTACAAGATTGCGCCCAAGACCCCGCTGGCCTGCCAGCCCCATGACCACAGCCAGTGCGTCAGCA (double strand) [znuA promoter fragment]”, the binding result is “binds”.
